Data: US20190077860A1 (EISAI R AND D MANAGEMENT, published 2019)
Positions count from the first letter of the chain named. Names and notes keep the numbering of the source.

T1: human EphA7 extracellular region-SEAP-His protein (human, UniProt Q15375 28-555)
T1 construct: extracellular domain; also called hEphA7-SEAP-His
T1 sequence (looked up): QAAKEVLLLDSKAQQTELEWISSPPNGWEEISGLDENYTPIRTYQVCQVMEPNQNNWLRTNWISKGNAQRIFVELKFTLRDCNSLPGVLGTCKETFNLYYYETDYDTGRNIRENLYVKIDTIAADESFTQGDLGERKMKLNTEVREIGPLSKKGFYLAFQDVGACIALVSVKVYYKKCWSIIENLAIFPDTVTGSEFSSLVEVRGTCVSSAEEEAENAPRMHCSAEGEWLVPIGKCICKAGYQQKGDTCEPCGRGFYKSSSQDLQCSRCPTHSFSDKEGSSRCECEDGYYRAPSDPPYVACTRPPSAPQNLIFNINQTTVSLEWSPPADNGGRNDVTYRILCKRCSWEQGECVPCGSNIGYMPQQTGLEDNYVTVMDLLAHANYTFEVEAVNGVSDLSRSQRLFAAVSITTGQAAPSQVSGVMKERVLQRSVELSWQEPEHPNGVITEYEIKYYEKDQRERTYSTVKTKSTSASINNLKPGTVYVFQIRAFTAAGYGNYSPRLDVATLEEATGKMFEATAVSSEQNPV

T2: human EphB4 extracellular region-SEAP-His protein (human, UniProt P54760 16-539)
T2 construct: extracellular domain; also called hEphB4-SEAP-His
T2 sequence (looked up): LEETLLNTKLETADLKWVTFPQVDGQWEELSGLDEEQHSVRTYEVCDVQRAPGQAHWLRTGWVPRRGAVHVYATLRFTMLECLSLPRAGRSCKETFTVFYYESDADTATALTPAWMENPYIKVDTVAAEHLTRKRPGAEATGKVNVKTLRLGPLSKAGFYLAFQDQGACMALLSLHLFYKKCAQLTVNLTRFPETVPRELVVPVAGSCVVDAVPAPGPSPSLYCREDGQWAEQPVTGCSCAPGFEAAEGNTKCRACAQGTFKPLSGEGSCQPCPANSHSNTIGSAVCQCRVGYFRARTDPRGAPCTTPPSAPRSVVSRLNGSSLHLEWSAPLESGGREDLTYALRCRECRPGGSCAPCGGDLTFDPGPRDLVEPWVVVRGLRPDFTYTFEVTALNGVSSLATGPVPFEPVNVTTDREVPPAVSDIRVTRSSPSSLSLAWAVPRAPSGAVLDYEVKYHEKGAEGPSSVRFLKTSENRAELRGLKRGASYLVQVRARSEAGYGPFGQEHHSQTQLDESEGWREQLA

T3: human EphA3 extracellular region-SEAP-His protein (human, UniProt P29320 21-541)
T3 construct: extracellular domain; also called hEphA3-SEAP-His
T3 sequence (looked up): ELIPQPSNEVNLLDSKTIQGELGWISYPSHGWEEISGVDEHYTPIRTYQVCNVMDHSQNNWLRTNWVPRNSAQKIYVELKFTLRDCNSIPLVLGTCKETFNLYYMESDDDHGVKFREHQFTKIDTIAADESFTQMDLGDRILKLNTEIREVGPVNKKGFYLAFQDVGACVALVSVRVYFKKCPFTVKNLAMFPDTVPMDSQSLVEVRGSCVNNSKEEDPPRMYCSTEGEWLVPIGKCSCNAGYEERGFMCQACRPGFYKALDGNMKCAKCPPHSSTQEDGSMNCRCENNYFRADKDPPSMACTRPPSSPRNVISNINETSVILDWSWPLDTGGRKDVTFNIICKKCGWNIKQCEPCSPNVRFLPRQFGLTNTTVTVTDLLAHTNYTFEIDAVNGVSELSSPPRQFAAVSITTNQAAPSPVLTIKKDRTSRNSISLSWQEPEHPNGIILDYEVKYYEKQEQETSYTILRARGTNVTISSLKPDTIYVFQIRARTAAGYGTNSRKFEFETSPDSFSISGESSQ

T4: human EphB3 extracellular region-SEAP-His protein (human, UniProt P54753 34-559)
T4 construct: extracellular domain; also called hEphB3-SEAP-His
T4 sequence (looked up): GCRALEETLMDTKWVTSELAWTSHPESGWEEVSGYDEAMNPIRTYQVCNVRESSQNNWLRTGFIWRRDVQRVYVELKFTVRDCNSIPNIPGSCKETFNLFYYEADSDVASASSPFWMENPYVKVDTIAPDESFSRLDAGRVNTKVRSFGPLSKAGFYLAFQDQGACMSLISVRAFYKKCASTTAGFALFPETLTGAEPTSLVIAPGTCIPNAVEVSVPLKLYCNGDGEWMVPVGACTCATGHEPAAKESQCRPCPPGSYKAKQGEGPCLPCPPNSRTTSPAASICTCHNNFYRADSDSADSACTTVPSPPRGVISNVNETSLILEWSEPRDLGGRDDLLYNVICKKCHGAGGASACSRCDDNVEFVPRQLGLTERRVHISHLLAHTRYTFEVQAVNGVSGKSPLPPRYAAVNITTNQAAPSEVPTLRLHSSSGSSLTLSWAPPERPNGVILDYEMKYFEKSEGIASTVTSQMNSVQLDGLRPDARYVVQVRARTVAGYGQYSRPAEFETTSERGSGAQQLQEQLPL

B1: humanized antibody No. 76 (antibody, human IgG1, kappa)
heavy: QVQLVQSGSELKKPGASVKVSCKASGYTFTDYSMHWVRQAPGQGLKWMGWINTETGEPTYAQGFTGRFVFSLDTSVSTAYLQISSLKAEDTAVYYCARIPLYYYGSRYWYFDVWGQGTTVTVSSASTKGPSVFPLAPSSKSTSGGTAALGCLVKDYFPEPVTVSWNSGALTSGVHTFPAVLQSSGLYSLSSVVTVPSSSLGTQTYICNVNHKPSNTKVDKRVEPKSCDKTHTCPPCPAPPAAAPSVFLFPPKPKDTLMISRTPEVTCVVVDVSHEDPEVQFNWYVDGVEVHNAKTKPREEQFNSTFRVVSVLTVVHQDWLNGKEYKCKVSNKGLPAPIEKTISKTKGQPREPQVYTLPPSREEMTKNQVSLTCLVKGFYPSDIAVEWESNGQPENNYKTTPPMLDSDGSFFLYSKLTVDKSRWQQGNVFSCSVMHEALHNHYTQKSLSLSPG
light: DIQMTQSPSSLSASVGDRVTITCRASENIYRNLAWYQQKPGKAPKLLVYAATNLADGVPSRFSGSGSGTDYTLTISSLQPEDFATYYCQHFWGTPWTFGQGTKVEIKRTVAAPSVFIFPPSDEQLKSGTASVVCLLNNFYPREAKVQWKVDNALQSGNSQESVTEQDSKDSTYSLSSTLTLSKADYEKHKVYACEVTHQGLSSPVTKSFNRGEC
notes: human Ig kappa; also called L1-4/HA2
B2: humanized antibody No. 86 (antibody, human IgG1, kappa)
heavy: B1 heavy with V2I, Q62D, G63D, T65K
light: B1 light with V48L, P80S
notes: human Ig kappa; also called L1-5/HK4
B3: humanized antibody No. 83 (antibody, human IgG1, kappa)
heavy: B1 heavy with V2I
light: B1 light with V48L, P80S
notes: human Ig kappa; also called L1-5/HA4
B4: humanized antibody No. 87 (antibody, human IgG1, kappa)
heavy: B1 heavy with K46E
light: B1 light with K45Q, V48L
notes: human Ig kappa; also called L1-6/HA1
B5: humanized antibody No. 82 (antibody, human IgG1, kappa)
heavy: B1 heavy
light: B1 light with V48L, P80S
notes: human Ig kappa; also called L1-5/HA2
B6: humanized antibody No. 69 (antibody, human IgG1, kappa)
heavy: B1 heavy with V2I, Q62D, G63D, T65K
light: B1 light
notes: human Ig kappa; also called L1-4/HK4
B7: humanized antibody No. 75 (antibody, human IgG1, kappa)
heavy: B1 heavy with K46E
light: B1 light
notes: constant region: human IgG1 CH1 and hinge, human IgG2 CH2 and CH3 with V234A, G237A, no C-terminal Lys; human Ig kappa; also called L1-4/HA1
B8: humanized antibody No. 81 (antibody, human IgG1, kappa)
heavy: B1 heavy with K46E
light: B1 light with V48L, P80S
notes: human Ig kappa; also called L1-5/HA1
B9: humanized antibody No. 77 (antibody, human IgG1, kappa)
heavy: B1 heavy with K46E, Q62D, G63D, T65K
light: B1 light
notes: human Ig kappa; also called L1-4/HK1
B10: humanized antibody No. 85 (antibody, human IgG1, kappa)
heavy: B1 heavy with Q62D, G63D, T65K
light: B1 light with V48L, P80S
notes: human Ig kappa; also called L1-5/HK2
B11: humanized antibody No. 78 (antibody, human IgG1, kappa)
heavy: B1 heavy with Q62D, G63D, T65K
light: B1 light
notes: human Ig kappa; also called L1-4/HK2
B12: humanized antibody No. 84 (antibody, human IgG1, kappa)
heavy: B1 heavy with K46E, Q62D, G63D, T65K
light: B1 light with V48L, P80S
notes: human Ig kappa; also called L1-5/HK1
B13: humanized antibody No. 67 (antibody, human IgG1, kappa)
heavy: B1 heavy with V2I
light: B1 light
notes: human Ig kappa; also called L1-4/HA4

What was measured:
Assay in all cases: ELISA
[1] = molecular target: T5, human EphA5 extracellular region-SEAP-His protein (human, UniProt P54756 25-573)
T5 construct: extracellular domain; also called hEphA5-SEAP-His
T5 sequence (P54756 25-573): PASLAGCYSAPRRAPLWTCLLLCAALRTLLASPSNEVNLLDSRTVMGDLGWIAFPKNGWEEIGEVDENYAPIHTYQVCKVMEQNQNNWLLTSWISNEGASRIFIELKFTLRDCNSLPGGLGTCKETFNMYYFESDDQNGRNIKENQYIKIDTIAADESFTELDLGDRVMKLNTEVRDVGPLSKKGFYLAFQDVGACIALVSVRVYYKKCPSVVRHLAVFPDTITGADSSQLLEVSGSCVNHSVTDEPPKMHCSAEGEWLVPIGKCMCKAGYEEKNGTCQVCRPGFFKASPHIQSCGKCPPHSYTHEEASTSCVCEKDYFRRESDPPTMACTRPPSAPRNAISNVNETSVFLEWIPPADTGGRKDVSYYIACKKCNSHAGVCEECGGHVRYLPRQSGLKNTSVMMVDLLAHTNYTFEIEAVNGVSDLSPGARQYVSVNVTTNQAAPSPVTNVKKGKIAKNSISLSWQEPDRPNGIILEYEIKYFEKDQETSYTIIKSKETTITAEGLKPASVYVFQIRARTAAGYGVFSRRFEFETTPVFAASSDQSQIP

[2] = molecular target: T1, human EphA7 extracellular …
[3] = molecular target: T2, human EphB4 extracellular …
[4] = molecular target: T3, human EphA3 extracellular …
[5] = molecular target: T4, human EphB3 extracellular …

| Binder | A450 as % of hEphA4-SEAP-His [1] [%] | A450 as % of hEphA4-SEAP-His [2] [%] | A450 as % of hEphA4-SEAP-His [3] [%] | A450 as % of hEphA4-SEAP-His [4] [%] | A450 as % of hEphA4-SEAP-His [5] [%] |
| --- | --- | --- | --- | --- | --- |
| B1 | 5.3 | 4.8 | 5.2 | 4.9 | 5 |
| B2 | 5.7 | 5.6 | 5.8 | 5.8 | 5.9 |
| B3 | 5.8 | 5.5 | 5.7 | 5.7 | 5.7 |
| B4 | 5.4 | 5.3 | 5.5 | 5.5 | 5.5 |
| B5 | 6.5 | 5.4 | 5.7 | 5.4 | 5.6 |
| B6 | 5.6 | 5.3 | 5.5 | 5.4 | 5.9 |
| B7 | 4.7 | 4.7 | 4.6 | 4.8 | 4.7 |
| B8 | 4.9 | 5.2 | 5 | 5 | 4.9 |
| B9 | 4.4 | 4.3 | 4.5 | 4.5 | 4.6 |
| B10 | 5 | 4.8 | 5.2 | 5.1 | 5.2 |
| B11 | 5.1 | 5 | 5.1 | 5.1 | 5.2 |
| B12 | 5 | 4.8 | 5.4 | 4.9 | 4.8 |
| B13 | 4.8 | 4.7 | 4.9 | 4.8 | 4.9 |
